Measurements: patent publication US20170037087

Biological target: recombinant IL-8 (UniProt P10145)
Sequence (P10145 28-99): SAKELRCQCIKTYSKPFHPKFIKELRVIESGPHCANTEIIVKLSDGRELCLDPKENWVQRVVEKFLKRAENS

“SpyCEP in cell-free GAS culture supernatants” was tested, and the “IL-8 degradation (uncleaved IL-8 by ELISA)” value was “the IL-8 degrading activity of SpyCEP”.
